Experimental data as given in article PMC4865804.

Columns and labels:
[1] = target: [ES] complex (FVIIa/TF_(PCPS)/FX) (UniProt P13726); assay: enzyme inhibition kinetics (mixed-type fit, secondary plots); FX activation by FVIIa (10 pM) in complex with recombinant human TF (Innovin); FX 0.58-50 nM; ringhalexin 50-150 nM; 50 mM HEPES pH 7.4, 140 mM NaCl, 5 mM CaCl2, 1% BSA, 37 °C; FXa read by hydrolysis of 500 μM S-2222 at 405 nm
[2] = target: extrinsic tenase complex (FVIIa/TF_(PCPS)), the [E] complex (human) (UniProt P13726); assay: as above
[3] = target: extrinsic tenase complex (FVIIa/TF_(PCPS)), the [E] complex (human) (UniProt P13726)

B1: ringhalexin (Ringhals extrinsic tenase complex inhibitor) (natural protein)
chain: RLCLSDYSIFSETIEICPEGHNYCFKKFPKGITRLPWVIRGCAATCPKPEAQVYVDCCARDKCNR
With B1 the Ki' (inhibitor constant for the [ES] complex) [1] was 152 nM, the Ki [2] was 84.2 nM and the inhibition of FX activation by the reconstituted extrinsic tenase complex (FXa formed, measured by S-2222 hydrolysis); ringhalexin 100 pM to 3 μM, FX 30 nM [3] was 124 nM.
